This experiment addresses NTD_GS_CTD (NP NTD and CTD joined by a 14 residue artificial linker, no tails) (SARS-CoV-2). In words: […].

What is called stoichiometry N is a count of units in the complex or per binding partner.

In turn, “NTD_GS_CTD (NP NTD and CTD joined by a 14 residue artificial linker, no tails) (domain or fragment)” registered a stoichiometry N of 2.

Values taken from article doi:10.1101/2024.03.17.585388.
